This note sets out measurements from US20110165066A1 (AbbVie / Abbott, published 2011).

The target of one assay is T1, mouse IL-13 (mouse, UniProt P20109 26-131, limits assumed).
T1 construct: also called mIL-13; murine IL-13
T1 sequence (looked up): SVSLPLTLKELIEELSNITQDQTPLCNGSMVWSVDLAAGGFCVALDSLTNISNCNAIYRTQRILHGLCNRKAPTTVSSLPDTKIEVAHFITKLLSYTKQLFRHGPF
The assay is described as follows: indirect ELISA, captured mAb, biotinylated mouse IL-13. Here is the method:
Murine anti-human IL-13 mAbs were prepared at various concentrations ranging from 0.1 to 100 ng/ml in PBS containing 0.1% BSA; 50 ul of each antibody dilution was added to the coated ELISA plate and incubated for 1 hour at room temperature. Wells were washed 3 times with PBS containing 0.05% Tween-20. […] Wells were washed 3 times with PBS containing 0.05% Tween-20. Streptavidin HRP (Pierce #21126, Rockland, Ill.) was diluted 1:20000 in PBS containing 0.1% BSA; […] was added and the plates incubated for 1 hour at room temperature. Plates were washed 3 times with PBS containing 0.05% Tween-20. Fifty microliters of TMB solution (Sigma # T0440, St. Louis, Mo.) was added to each well and incubated for 10 minutes at room temperature. The reaction was stopped by addition of 1N sulphuric acid. Plates were read spectrophotmetrically at a wavelength of 450 nm.

The target of assay [1] is T2, human IL-13 wild type (human, UniProt P35225 35-146).
T2 construct: also called h IL-13; h IL-13 wt
T2 sequence (P35225 other isoform, or with tags, fused parts or gaps limits assumed): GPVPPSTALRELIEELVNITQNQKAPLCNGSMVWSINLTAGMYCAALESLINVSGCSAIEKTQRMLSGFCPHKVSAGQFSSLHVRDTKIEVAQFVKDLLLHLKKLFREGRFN
The assay is described as follows: SPR (Biacore), mAb captured, IL-13 as analyte. Here is the method:
(§1) The BIACORE assay (Biacore, Inc, Piscataway, N.J.) determines the affinity of antibodies with kinetic measurements of on-, off-rate constants. […] All chemicals were obtained from Biacore® AB (Uppsala, Sweden) or otherwise from a different source as described in the text. Approximately 5000 RU of goat anti-mouse IgG, (Fcγ), fragment specific polyclonal antibody (Pierce Biotechnology Inc, Rockford, Ill.) diluted in 10 mM sodium acetate (pH 4.5) was directly immobilized across a CM5 research grade biosensor chip using a standard amine coupling kit according to manufacturer's instructions and procedures at 25 μg/ml. Unreacted moieties on the biosensor surface were blocked with ethanolamine. Modified carboxymethyl dextran surface in flowcell 2 and 4 was used as a reaction surface. Unmodified carboxymethyl dextran without goat anti-mouse IgG in flow cell 1 and 3 was used as the reference surface. For kinetic analysis, rate equations derived from the 1:1 Langmuir binding model were fitted simultaneously to association and dissociation phases of all eight injections (using global fit analysis) with the use of Biaevaluation 4.0.1 software. Purified antibodies were diluted in HEPES-buffered saline for capture across goat anti-mouse IgG specific reaction surfaces. Mouse antibodies to be captured as a ligand (25 μg/ml) were injected over reaction matrices at a flow rate of 5 μl/min. The association and dissociation rate constants, kₒₙ (unit M⁻¹s⁻¹) and koff (unit s⁻¹) were determined under a continuous flow rate of 25 μl/min Rate constants were derived by making kinetic binding measurements at ten different antigen concentrations ranging from 10-200 nM. […] Binding is recorded as a function of time and kinetic rate constants are calculated.

The target of assay [2] is T3, human IL-13 variant (R130Q) (human, UniProt P35225 35-146).
T3 construct: called R110Q in the assay descriptions (mature numbering); also called h IL-13v; hIL-13v
T3 sequence (P35225 35-146 limits assumed, stated change not applied): as the sequence (P35225 other isoform, or with tags, fused parts or gaps limits assumed) above, with R110Q counted along it
The assay can be described thus: SPR (Biacore), mAb captured, IL-13 as analyte. Here is the method:
as §1

Another assay concerns the target cynomolgus IL-13 (cynomolgus, UniProt Q0PW92 21-132). The assay can be described thus: cell-based or functional assay.
In assay [3] the target is T2, human IL-13 wild type. The assay is described as follows: cell-based or functional assay.
For assay [4], the target named is T3, human IL-13 variant (R130Q). The assay is described as follows: cell-based or functional assay.
In assay [5] the target is T2, human IL-13 wild type. The assay is described as follows: cell-based or functional assay. This is another data set of the same source.
For assay [6], the target named is T3, human IL-13 variant (R130Q). The assay is described as follows: cell-based or functional assay. This is another data set of the same source.
The target of assay [7] is T2, human IL-13 wild type. The assay is described as follows: SPR (Biacore). How it is done:
as §1

cynomolgus IL-13, sequence (Q0PW92 entry or part of it): as the sequence (P35225 other isoform, or with tags, fused parts or gaps limits assumed) above, with G1S, R10K, M42V, S67N, H83R, L100V, R110Q counted along it

B1: 25C8 (antibody, V domains shown)
VH: QVQLQQPGAELVRPGASVQLSCKASGYTFTSSWIHWVNQRPGQGLEWIGMIHPSDSETRLNQKFKDKATLTVDKSSSTAYMQLSSPTSEDSAVYYCASTATDFDYWGQGTTLTVSS
VL: DVVLTQTPLSLPVNIGDQASISCKSTKSLLNSDGFTYLDWYLQKPGQSPQLLIYLVSNRFSGAPDRFSGSGSGTDFTLKISRVEAEDLGVYYCFQHNYLPLTFGAGTNLELKR
With B1, in the assay with mouse IL-13, the binding result is reported as “no binding (tested: 0.1 to 100 ng/ml)”. Besides, the Kd with human IL-13 wild type [1] stood at 0.0754 nM; in assay [2], 0.0631 nM. Further, the dissociation rate constant (koff) in the assay with human IL-13 wild type [1] came out at 2.6e-05 s⁻¹; in [2], 8.45e-06 s⁻¹. Also, the results for the on-rate (kon) (in the assay with human IL-13 wild type [1]; in assay [2]) were 345000 M⁻¹ s⁻¹ and 134000 M⁻¹ s⁻¹, respectively. In addition, the “Average IC50, IL-13-induced TARC production by A-549 cells” value (shortened to “Average IC50”) in the assay with cynomolgus IL-13 turned out to be 0.188 nM; with human IL-13 wild type [3], 0.23 nM; in assay [4], 0.26 nM.

B2: 13C5.1 (antibody, human IgG1, V domains shown)
VH: EVTLKESGPVLVKPTETLTLTCTFSGFSLSTSDMGVDWIRQPPGKALEWLAHIWWDDVKRYNPALKSRLTISKDTSKSQVVLTMTNMDPVDTATYYCARTVSSGYIYYAMDYWGQGTTVTVSS
VL: DIQMTQSPSSLSASVGDRVTITCRASQDIRNYLNWYQRKPGKVVKLLIYYTSKLHSGVPSRFSGSGSGTDFTLTISSLQPEDVATYYCQQGNTLPLTFGGGTKVEIKR
notes: Humanized
As for B2, in the assay with human IL-13 wild type [5], the “Potency (IC50), A-549 bioassay” value worked out at 0.868 nM. The “Potency (IC50), A-549 bioassay” value in assay [6] came to 0.369 nM. In the assay with human IL-13 wild type [7], the Kd is 0.71 nM, the koff was determined as 0.000474 s⁻¹ and the kon was found to be 668000 M⁻¹ s⁻¹.

B3: 13C5.2 (antibody, human IgG1, V domains shown)
VH: EVTLKESGPVLVKPTETLTLTCTFSGFSLSTSDMGVDWIRQPPGKALEWLAHIWWDDVKRYNPALKSRLTISKDTSKSQVVLTMTNMDPVDTATYYCARTVSSGYIYYAMDYWGQGTTVTVSS
VL: DIQMTQTPSSLSASVGDRVTISCRASQDIRNYLNWYQRKPGKVVKLLIFYTSKLHSGVPSRFSGSGSGTDYTLTISSLQPEDVATYFCQQGNTLPLTFGGGTKVEIKR
notes: Humanized
Take B3: the “Potency (IC50), A-549 bioassay” value in the assay with human IL-13 wild type [5] stood at 0.193 nM. Further, the “Potency (IC50), A-549 bioassay” value in assay [6] is 0.13 nM. In the assay with human IL-13 wild type [7], this molecule gave a dissociation constant Kd of 0.0979 nM, a koff of 0.000123 s⁻¹ and an on-rate constant (kon) of 1.26e+06 M⁻¹ s⁻¹.

B4: 5G1.1 (antibody, human IgG1, V domains shown)
VH: EVQLVQSGAEVKKPGASVKVSCKASGYTFTTYGVSWVRQAPGQGLEWIGEIYPGNYNTYYNEKFRGKATMTTDTSTSTAYMELRSLRSDDTAVYYCSRWRTSYFSDYGYFDYWGQGTTVTVSS
VL: DVVMTQSPLSLPVTLGQPASISCRSSQSLVHSHGNTYLHWYQQRPGQSPRLLIYTVSNRFSGVPDRFSGSGSGTDFTLKISRVEAEDVGVYYCSQSTHVPYTFGGGTKVEIKR
notes: Humanized
B4: in the assay with human IL-13 wild type [5], the “Potency (IC50), A-549 bioassay” value stood at 0.029 nM. The “Potency (IC50), A-549 bioassay” value in assay [6] was 0.0741 nM. Moreover, in the assay with human IL-13 wild type [7], the equilibrium dissociation constant (Kd) amounted to 0.0272 nM, the koff was determined as 2.14e-05 s⁻¹ and the kon is 786000 M⁻¹ s⁻¹.

B5: 5G1.5 (antibody, human IgG1, V domains shown)
VH: QVQLVQSGAEVKKPGASVKVSCKASGYTFTTYGVSWVRQAPGQGLEWIGEIYPGNYNTYYNEKFRGKATLTADKSTSTAYMELSSLRSEDTAVYYCSRWRTSYFSDYGYFDYWGQGTLVTVSS
VL: DIVMTQSPLSLPVTPGQPASISCRSSQSLVHSHGNTYLHWYLQKPGQSPKLLIYTVSNRFSGVPDRFSGSGSGTDFTLKISRVEAEDVGVYYCSQSTHVPYTFGGGTKVEIK
notes: Humanized; The heavy chain row is printed 'VN 5G1.5'
Consider B5, for which the “Potency (IC50), A-549 bioassay” value with human IL-13 wild type [5] amounted to 0.114 nM. Also, in [6], the “Potency (IC50), A-549 bioassay” value worked out at 0.0655 nM. In the assay with human IL-13 wild type [7], this molecule displayed a Kd of 0.022 nM, a dissociation rate constant (koff) of 1.91e-05 s⁻¹ and an on-rate (kon) of 869000 M⁻¹ s⁻¹.

B6: 5G1.2 (antibody, human IgG1, V domains shown)
VH: EVQLVQSGAEVKKPGASVKVSCKASGYTFTTYGVSWVRQAPGQGLEWIGEIYPGNYNTYYNEKFRGKATLTADKSTSTAYMELSSLRSDDTAVYFCSRWRTSYFSDYGYFDYWGQGTTVTVSS
VL: DVVMTQSPLSLPVTLGQPASISCRSSQSLVHSHGNTYLHWYQQRPGQSPRLLIYTVSNRFSGVPDRFSGSGSGTDFTLKISRVEAEDVGVYFCSQSTHVPYTFGGGTKVEIKR
notes: Humanized
On to B6, for which, in the assay with human IL-13 wild type [5], the “Potency (IC50), A-549 bioassay” value came to 0.0295 nM. The “Potency (IC50), A-549 bioassay” value in [6] was 0.0553 nM. Also, in the assay with human IL-13 wild type [7], binding was put at a Kd of 0.105 nM, the koff stood at 8.81e-05 s⁻¹ and the kon is 835000 M⁻¹ s⁻¹.

B7: 5D3 (antibody, V domains shown)
VH: QVQLKESGPGLVAPSQSLSITCTVSGFSLTGYNINWVRQPPGKGLEWLGLIWGDGNTAFNSALKSRLSISKDNSKSQVFLKLNSLQTDDTARYYCARDGYYPYAIKYWGQGTSVTVSS
VL: NIVLTQSPASLAVSLGQRATISCRASETVDSYGNSFMHWYQQKPGQPPKLLIYLASNLESGVPARFSGSGSRTDFTLTIDPVEADDAATYYCQQNNEDPRTFGGGTKLEIKR
Take B7: the binding result in the assay with mouse IL-13 is given as “no binding (tested: 0.1 to 100 ng/ml)”. Also, the dissociation constant (Kd) in the assay with human IL-13 wild type [1] amounted to 0.296 nM; in [2], 0.387 nM. Moreover, the off-rate (koff) with human IL-13 wild type [1] worked out at 0.000483 s⁻¹; in [2], 0.000584 s⁻¹. Moreover, the on-rate constant (kon) with human IL-13 wild type [1] was 1.63e+06 M⁻¹ s⁻¹; in assay [2], 1.51e+06 M⁻¹ s⁻¹. In addition, the “Average IC50” value amounted to 0.291 nM in the assay with cynomolgus IL-13, 0.705 nM with human IL-13 wild type [3] and 0.29 nM in [4].

B8: 21D9 (antibody, V domains shown)
VH: QVQLQQSGDDLVKPGASVKLSCKASGYTFTSYWINWIKQRPGQGLEWIGHIAPGSGETYDNEMFKDKAKLTVDTSSNTAYIHLSSLSSEDSAVYFCARGSFTFFYAMDYWGQGTSVTVSS
VL: DVLMTQTPLSLPVSLGDQASISCRSSQNIVHSNGKTYLEWYLQRPGQSPKLLIYKVSNRFSGVPDRFSGSGSGTDFTLKISRVEAEDLGVYYCFQGSHVPYTFGGGTKLEIKR
On to B8, for which, in the assay with mouse IL-13, the binding result is “no binding (tested: 0.1 to 100 ng/ml)”. The Kd stood at 0.0772 nM with human IL-13 wild type [1] and 0.0744 nM in [2]. Also, the dissociation rate constant (koff) came to 6.58e-05 s⁻¹ with human IL-13 wild type [1] and 6.18e-05 s⁻¹ in [2]. Besides, the results for the association rate constant (kon) (in the assay with human IL-13 wild type [1]; in assay [2]) were 852000 M⁻¹ s⁻¹ and 831000 M⁻¹ s⁻¹, respectively. The “Average IC50” value in the assay with cynomolgus IL-13 stood at 0.34 nM; with human IL-13 wild type [3], 0.0682 nM; in assay [4], 0.136 nM.

B9: 22D10 (antibody, V domains shown)
VH: QVQLQQSGDDLVKPGASVKLSCKASGYTFTSYWINWIKQRPGQGLEWIGHIAPGSGETYDNEMFKDKAKLTVDTSSSTAYIHLSSLSSEDSAVYFCARGSFTFFYAMDYWGQGTSVTVSS
VL: DVLMTQTPLSLPVSLGDQASISCRSSQNIVHSNGKTYLEWYLQRPGQSPKLLIYKVSNRFSGVPDRFSGSGSGTDFTLKISRVEAEDLGVYYCFQGSHVPYTFGGGTKLEIKR
For the molecule B9, the binding result with mouse IL-13 is “no binding (tested: 0.1 to 100 ng/ml)”. The figures for the Kd (with human IL-13 wild type [1]; in [2]) were 0.356 nM and 0.632 nM, respectively. Moreover, the koff with human IL-13 wild type [1] came out at 6.5e-05 s⁻¹; in [2] it was 0.000155 s⁻¹. Besides, the figures for the kon (with human IL-13 wild type [1]; in assay [2]) were 182000 M⁻¹ s⁻¹ and 245000 M⁻¹ s⁻¹, respectively. In addition, the “Average IC50” value in the assay with cynomolgus IL-13 turned out to be 6.11 nM; in the assay with human IL-13 wild type [3], 0.284 nM; in [4] it was 0.54 nM.
